Experiment [1] has as its target T1, KTN1(991–1357) (human, UniProt Q86UP2 991-1357).
T1 sequence (looked up): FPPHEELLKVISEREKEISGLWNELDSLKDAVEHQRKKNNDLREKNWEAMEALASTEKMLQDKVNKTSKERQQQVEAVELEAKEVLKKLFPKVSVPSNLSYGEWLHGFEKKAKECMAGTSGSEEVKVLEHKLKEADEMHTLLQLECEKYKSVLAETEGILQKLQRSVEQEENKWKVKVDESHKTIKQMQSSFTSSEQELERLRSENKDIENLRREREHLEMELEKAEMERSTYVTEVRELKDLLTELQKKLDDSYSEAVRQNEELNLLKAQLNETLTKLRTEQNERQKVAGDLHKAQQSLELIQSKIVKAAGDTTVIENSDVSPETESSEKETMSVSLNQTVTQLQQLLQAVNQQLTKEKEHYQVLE
As to the kind of experiment: pull-down.

Another experiment concerns the target CDR2(1–146) (human, UniProt Q01850 1-146). The experiment is described as follows: SEC.
The target of experiment [2] is T1, KTN1(991–1357). As to the kind of experiment: SEC.

From publication PMC11580933 (bioRxiv, 2024) come the findings set out here.

Where no end group is shown, it is not given here.

Chain of CDR2(1–146) (Q01850 1-146): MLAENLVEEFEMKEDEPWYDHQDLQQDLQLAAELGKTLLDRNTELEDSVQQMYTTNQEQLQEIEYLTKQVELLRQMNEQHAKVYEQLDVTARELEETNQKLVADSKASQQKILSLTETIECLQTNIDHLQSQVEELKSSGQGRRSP

B1: GST::KIF5C(807–956) (domain or fragment)
chain: not shown
In the case of B1, the binding result in the experiment with KTN1(991–1357) [1] is reported as “binds”.

B2: GST::DLIC1(388–523) (domain or fragment, human, UniProt Q9Y6G9 388-523, looked up)
chain: PTAAGRPVDASPRVPGGSPRTPNRSVSSNVASVSPIPAGSKKIDPNMKAGATSEGVLANFFNSLLSKKTGSPGGPGVSGGSPAGGAGGGSSGLPPSTKKSGQKPVLDVHAELDRITRKPVTVSPTTPTSPTEGEAS
Consider B2, for which the binding result with CDR2(1–146) is “binds”.

B3: GST::eEF1Bβ(30–66) (domain or fragment, human, UniProt P29692 30-66, looked up)
chain: {GST}-NGPVAGASRQENGASVILRDIARARENIQKSLAGSSG
For the molecule B3, the binding result in the experiment with KTN1(991–1357) [2] is on record as “binds”.

B4: GST::CDR2(411–454) (domain or fragment, human, UniProt Q01850 411-454, looked up)
chain: EPVSSPTTPPEYKALFKEIFSCIKKTKQEIDEQRTKYRSLSSHS
As for B4, the binding result in the experiment with KTN1(991–1357) [2] is reported as “binds”.
